Source: patent US20240415889A1 (published 2024)
Numbering of substitutions follows the chain as printed. Blank lines part the entries; values can stand above or below the binder they belong to.

Experiments:
[1] = biological target: T1, single chain CD94/NKG2A-Fc (CD94/NKG2A-IgG1 fusion polypeptide); experiment: ELISA; FIG. 27
[2] = biological target: T1, single chain CD94/NKG2A-Fc …; experiment: competitive ELISA (HLA-E tetramer)
[3] = biological target: T1, single chain CD94/NKG2A-Fc …; experiment: BLI
[4] = biological target: T1, single chain CD94/NKG2A-Fc …; experiment: competitive ELISA (HLA-E tetramer); FIG. 26

T1 sequence (chain, as listed by the source): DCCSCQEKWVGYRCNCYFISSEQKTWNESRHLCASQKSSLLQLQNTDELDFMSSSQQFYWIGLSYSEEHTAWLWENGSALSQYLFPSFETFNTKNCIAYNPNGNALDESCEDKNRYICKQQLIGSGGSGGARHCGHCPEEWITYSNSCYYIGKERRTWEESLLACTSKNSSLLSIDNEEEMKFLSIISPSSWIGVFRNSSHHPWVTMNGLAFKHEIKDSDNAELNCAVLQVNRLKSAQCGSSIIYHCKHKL

EC50 [1]: 0.64 nM
IC50 [2]: 1.4 nM
B1: IgG Clone #2 (1B2-6, IgG1-LALA-PG) (antibody, V domains shown)
VH: EVQLVESGGGLVKPGGSLRLSCAASGFTFSGYYMSWIRQAPGKGLEWLAYISNSGRTIYYADSVKGRFTISRDNSNSSLYLQMNSLRAEDTAVYYCARGFYMDAWGKGTTVTVSS
VL: DIQMTQSPSSLSASVGDRVTITCRASQSISSYLNWYQQKPGKAPKLLIYAASSLQSGVPSRFSGSGSGTDFTLTISSLQPEDFGVYYCQYYGISPPFTFGPGTKVDIKR

Kd [3]: 1.14 nM
EC50 [1]: 1.6 nM
IC50 [2]: 9.6 nM
IC50 [4]: 20 nM
B2: IgG Clone #1 (1B2, IgG1-LALA-PG) (antibody, V domains shown)
VH: B1 VH with E1Q, G31D, L48V, A49S, N53S, R56S, S75A, N76K, S77N
VL: B1 VL
